This note sets out measurements from US20210206875A1, “ERBB-2 TARGETING AGENT AND A BISPECIFIC ANTIBODY WITH ANTIGEN-BINDING SITES THAT BIND AN EPITOPE ON AN EXTRACELLULAR PART OF ERB-2 AND ERBB-3, FOR TREATMENT OF AN INDIVIDUAL WITH AN ERBB-2, ERBB-2/ERBB-3 POSITIVE TUMOUR” (Merus N.V., priority 2017, published 2021).

What is called IC50 is the concentration that gives 50% inhibition. Low readings indicate higher potency, high ones lower potency.

For one assay, the system named is MCF-7 cells. Briefly: HRG dependent MCF-7 proliferation assay. The assay is classed as cell-based, human. The settings on record: HRG dependent MCF-7 assay. Here is the method:
(§1) SK-BR-3 cells were cultured in DMEM-F/12 supplemented with L-glutamine and 10% heat inactivated FBS. BxPC-3-luc2 cells were cultured in RPMI1640 supplemented with 10% heat inactivated FBS. MCF-7 cells were cultured in RPMI1640 supplemented with 100 μM, NEAA1 mM sodium pyruvate, 4 μg/ml insulin and 10% heat inactivated FBS.
For the proliferation assay of MCF-7 and BxPC-3-luc2 cells, subconfluent cell cultures were washed with PBS, trypsinized and trypsin was inactivated by adding culture medium. Cells were washed twice in large volumes of assay medium (RPMI 1640 medium containing 0.05% BSA and 10 μg/ml Holo Transferrin). MCF-7 cells were diluted to 5×10^4 cells/ml in culture medium. Antibodies were diluted to concentrations of 10 and 1 μg/ml and added in a volume of 100 μl in 96-well black bottom plates (ABgene AB-0932). Cells were added at a density of 5000 cells/well in the presence of 1 ng/ml final concentration human Recombinant Human NRG1-beta 1/HRG1-beta 1 EGF Domain; (396-HB-050 RND). Human NRG1-beta 1/HRG1-beta 1 EGF Domain will hereinafter be referred to as HRG. […] Fluorescence was measured at 550 nm excitation with 590 nm emission wave length.
The IC50 for the bispecific antibodies, monoclonals and comparator antibodies was calculated using non-linear regression analysis with Prism software.

For a further assay, the system named is BxPC-3-luc2 cells. As to the kind of experiment: HRG dependent BxPC-3-luc2 proliferation assay. The assay is classed as cell-based, human. Here is the method: as §1
Antibodies were diluted to concentrations of 10 and 1 μg/ml and added in a volume of 100 μl in 96-well black bottom plates (ABgene AB-0932). […] Fluorescence was measured at 550 nm excitation with 590 nm emission wave length.

B1: #Ab6: anti-HER3 antibody of Merrimack Pharmaceuticals, recloned in IgG1 backbone (antibody, chains of the INN, looked up, V domains shown)
VH: EVQLLESGGGLVQPGGSLRLSCAASGFTFSHYVMAWVRQAPGKGLEWVSSISSSGGWTLYADSVKGRFTISRDNSKNTLYLQMNSLRAEDTAVYYCTRGLKMATIFDYWGQGTLVTVSS
VL: QSALTQPASVSGSPGQSITISCTGTSSDVGSYNVVSWYQQHPGKAPKLIIYEVSQRPSGVSNRFSGSKSGNTASLTISGLQTEDEADYYCCSYAGSSIFVIFGGGTKVTVL
modifications: IgG1
notes: anti-HER3 antibody of Merrimack Pharmaceuticals, recloned in IgG1 backbone
B1 gave an IC50 in the assay on MCF-7 cells of 0.504 nM. Also, in the assay on BxPC-3-luc2 cells, the “BxPC3 % Inhibition” value was −7%.
